Consider 29 sequences from the supplement of paper PMC10567573.

± gives the standard deviation.

The data set can be described thus: protein stability index of a GFP-peptide fusion (GPS, HEK-293T) (PSI 1-6); higher = more stable. The settings on record: c terminus: a fixed tail appended.
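Note: 24-mer peptide tiles fused after GFP, lentivirally expressed, FACS-sorted into six equal bins by GFP/DsRed ratio, decoded by Illumina sequencing, PSI is the read-weighted mean bin number.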

Consider QQELETLPTTKMAQTNPTPGSLGP [CRYBA1], for which the protein stability index is, setting by setting: (treatment: DMSO) 5.15 ± 0.1; (treatment: MLN4924 1 uM, 8 h) 5.09 ± 0.13.

Regarding FPKSEQVYLHFLSVVTEDGPEPKD [ZNF232], the protein stability index worked out at 2.58 ± 0.5 (treatment: DMSO) and 3.39 ± 0.56 (treatment: MLN4924 1 uM, 8 h).

Turning to TFLPYTFSLMVTFPDVPLGIFLFC [TMEM175], the protein stability index runs as follows: (treatment: DMSO) 2.49 ± 0.14; (treatment: MLN4924 1 uM, 8 h) 2.98 ± 0.8.

As to IYEFWENSSVWNSHLQTNYSKTFQ [NECAB1], the protein stability index turned out to be 2.28 ± 0.31 (treatment: DMSO) and 2.16 ± 0.26 (treatment: MLN4924 1 uM, 8 h).

RGKLKKTEEELRRIQTQKEQAKEN [ZC2HC1C] displayed a protein stability index (treatment: DMSO) of 5.31 ± 0.13 and a protein stability index (treatment: MLN4924 1 uM, 8 h) of 5.39 ± 0.13.

For the sequence ADEGSRNSRFQMLFTSFQEPPCEG [NETO1], the protein stability index is 3.98 ± 0.094 (treatment: DMSO) and 4.17 ± 0.22 (treatment: MLN4924 1 uM, 8 h).

KMAVSRHLTRGRKMAHVIAACLYL [BRF1]: the protein stability index runs as follows: (treatment: DMSO) 2.81 ± 0.37; (treatment: MLN4924 1 uM, 8 h) 2.6 ± 0.56.

For HCNVSNILHMNGSQSSTYRGTYEQ [ZNF396], the protein stability index by setting is: (treatment: DMSO) 3.17 ± 0.21; (treatment: MLN4924 1 uM, 8 h) 3.24 ± 0.088.

Consider TMGAVVLSSTLLSFSTAIGRTCIT [MFSD9], for which the protein stability index by setting is: (treatment: DMSO) 2.98 ± 0.48; (treatment: MLN4924 1 uM, 8 h) 3.22 ± 0.29.

For SNRWLMVKIFLILIVFFIIFVVFL [STX5], the protein stability index was found to be 3.38 ± 0.24 (treatment: DMSO) and 3.45 ± 0.32 (treatment: MLN4924 1 uM, 8 h).

The sequence KDSVMQQNLVYYRFHRARWGLEEE [P3H4] had a protein stability index (treatment: DMSO) of 2.51 ± 0.28 and a protein stability index (treatment: MLN4924 1 uM, 8 h) of 2.43 ± 0.085.

LRGALQQGEAFQRALESELQQLRA [PBXIP1]: the protein stability index runs as follows: (treatment: DMSO) 3.56 ± 0.24; (treatment: MLN4924 1 uM, 8 h) 3.67 ± 0.23.

Consider MRRMVATWMLEVCEEQKCEEEVFP [CCND2], for which the protein stability index is, setting by setting: (treatment: DMSO) 2.9 ± 0.46; (treatment: MLN4924 1 uM, 8 h) 3.14 ± 0.045.

Sequence LLEKNASVNEVDFEGRTPMHVACQ [RIPK4] yielded a protein stability index (treatment: DMSO) of 3.83 ± 0.31 and a protein stability index (treatment: MLN4924 1 uM, 8 h) of 3.94 ± 0.16.

As to TGNPKSEEPEVPDQEGLQRITGLS [SPNS1], the protein stability index runs as follows: (treatment: DMSO) 5.35 ± 0.26; (treatment: MLN4924 1 uM, 8 h) 5.41 ± 0.16.

Consider GGSAVCASRVKLQHLPAQEQWDRL [PLEKHN1], for which the protein stability index by setting is: (treatment: DMSO) 3.08 ± 0.43; (treatment: MLN4924 1 uM, 8 h) 3.06 ± 0.29.

As for QFSDEVEPATPEEGEPATQRQDPA [GAGE1], the protein stability index by setting is: (treatment: DMSO) 5.6 ± 0.11; (treatment: MLN4924 1 uM, 8 h) 5.57 ± 0.096.

Consider LEKNHPEEFCEFVKSNTEQMREAF [ZBED1], for which the protein stability index reads like this: (treatment: DMSO) 4.58 ± 0.13; (treatment: MLN4924 1 uM, 8 h) 4.63 ± 0.16.

AVVAVDRQAIFPDTWTLTEEHGLQ [PXN]: the protein stability index (treatment: DMSO) was determined as 3.35 ± 0.51 and the protein stability index (treatment: MLN4924 1 uM, 8 h) was 3.35 ± 0.34.

On to WKVRYDTFIVSCKFSPDGKYVVSG [WDR88], for which the protein stability index (treatment: DMSO) was determined as 2.31 ± 0.45 and the protein stability index (treatment: MLN4924 1 uM, 8 h) stood at 2.49 ± 0.14.

Turning to FDLAKGNAGKVNLPKELPADAVNL [PLAGL1], the protein stability index (treatment: DMSO) is 4.41 ± 0.21 and the protein stability index (treatment: MLN4924 1 uM, 8 h) is 4.5 ± 0.29.

Consider LRESIASYLSLTSEDNTSFDRKKK [SLA], for which the protein stability index runs as follows: (treatment: DMSO) 3.9 ± 0.16; (treatment: MLN4924 1 uM, 8 h) 3.81 ± 0.15.

Consider FSPTPPQQFQPAGTDQVCVLEWGA [FCHSD1], for which the protein stability index runs as follows: (treatment: DMSO) 2.49 ± 0.27; (treatment: MLN4924 1 uM, 8 h) 2.86 ± 0.35.

With KPYDPPGEKMVAAKVKGEKLDKKL [ATF4], the protein stability index by setting is: (treatment: DMSO) 5.12 ± 0.21; (treatment: MLN4924 1 uM, 8 h) 5.12 ± 0.056.

As to SRPAVGPPQPGCPAFIIVKLSPLR [ZSWIM9], the protein stability index runs as follows: (treatment: DMSO) 2.59 ± 0.19; (treatment: MLN4924 1 uM, 8 h) 2.33 ± 0.15.

With YGYVYFRQVRDKTLKRGYFQKSLV [DENND6A], the protein stability index was determined as 2.56 ± 0.46 (treatment: DMSO) and 2.1 ± 0.16 (treatment: MLN4924 1 uM, 8 h).

EDQWGKGTLTPRMTTDFDLSLDNS [TRIM9]: the protein stability index was 4.7 ± 0.18 (treatment: DMSO) and 4.9 ± 0.33 (treatment: MLN4924 1 uM, 8 h).

Take KAIKQKLWEALCSQGAISEGAQRD [C22orf31]: the protein stability index is, setting by setting: (treatment: DMSO) 2.72 ± 0.27; (treatment: MLN4924 1 uM, 8 h) 2.85 ± 0.065.

In the case of FGTIISGIQLLIVEYKDIASIHWD [SLC35F2], the protein stability index is, setting by setting: (treatment: DMSO) 3.15 ± 0.29; (treatment: MLN4924 1 uM, 8 h) 3 ± 0.34.
